A protein production outcome set (Wang et al. 2014)

Assay: label from the status in PepcDB records
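Also: failed if final PepcDB status was selected cloned or expressed and not failed if soluble or beyond.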

Row | Sequence | protein production
1 | MNKLSEKNTTRLASLDILRGFDLFLLVFFQPVFAALVRQLNLPFLNDILYQFDHEVWEGFRFWDLVMPLFLFMTGASMPFSLSKYVGMSGSYWLVYRRILRRVFLLFIFGMIVQGNLLGLDSSHIYLYSNTLQSIAVGYLIAAVIQLHFSFRWQIGITLLLLFIYWIPMTFLGDFTPAGNFAEQVDRCVLGRFRDGVFWNEDGTWSFSPYYNYTWIWSSLTFGVTVMLGAFAGKIMKEGKANRKKVVQTLSVIGVLLVGLAMLWSLQMPIIKRLWTGSMTLLSGGYCFLLMALFYYWIDYKGHSRGLNWLKVYGMNSITAYLLGEVVNFRCIADSVSYGLKQYIGDYYPVWLTFANYLILFFLLRMMYKRGLFLKV | failed
2 | MVTQEQRRRQLAREKFLRQQQRRTSARRKARMRNAAIASVLGVILIGSVALYTTGVVLGDDDDKTNAGAEVTPSASAPSKAPDPCDKPADGKVKTQTWKKEPAMTVDKSAKYTMKLATTCGDIDLALKADAAPHTVNSFDFLAGKGYFDHTKCHRLTTEGIYVLQCGDPTAQGNGGPGYNIPDENLKDKSLKDNVYPAGTVAMANTGQPDSGGSQFFLVYQDSQLPPSYTPFGTVSKEGMTVLKKIASAGAQPADPTTGNTAPNATVVIDKATVSKS | failed
3 | MKLAEALILRADLQKELMSLKNRINQNLLVQEGEKPSENPYTLYDEILLKVSELEGLILKINKTNSNYITSNNESISDLIVKRDMLGKKISILKEIAEEATVKVNRYSQTEIKIFSAMKVDQLQREINKYSKEYRELDTKLQGLNWTIDLME | failed
4 | MSNHQKRLSVPNSWPVERKTATFTVKAGAGPHGESGVPLLIVLRDVLGYADNRKEARYALNEDNVLINGKAISDEERPVGMFDILAFTEREEYYRVFPGEGGRLALTAIDPDAAQSKLGKIVTKTHVSGGDVQLGLHDGETLIVEDDQTYDAGDSIVVGNEDGEVVAHFEYEEGALVTAVDGAHAGEVGEVEEIQVTPGSAQNNVIVSQDEGEGFETVEEYVVVIDENFTGDDELEHHHHHH | not failed
5 | MSKKIFAALIVAVVATFAGYNIYQSQRAEMEMSDLAMANIEALANDGESSTETTWSCKGTVGTCGAKCGLCGTTIPKSKGTLTGSHKCSM | failed
6 | MKVYIETMGCAMNSRDSEHLLSELSKLDYKETNDPKTADLILINTCSVREKPERKLFSEIGQFAKIKKPNAKIGVCGCTASHMGADILKKAPSVSFVLGARNVSKISQVIHKEKAVEVAIDYDESAYAFEFFEKKAQIRSLLNISIGCDKKCAYCIVPHTRGKEISIPMDLILKEAEKLANNGTKELMLLGQNVNNYGARFSSEHAKVDFSDLLDKLSEIQGIERIRFTSPHPLHMNDGFLERFAKNPKVCKSIHMPLQSGSSAVLKMMRRGYSKEWFLNRVERLKALVPEVGISTDIIVGFPNESDKDFEDTMEVLEKVRFDTLYSFIYSPRPFTEAGAWKERVPLEVSSSRLERLQNRHKEILEEKAKLEVGKTHVVLVENRREMDNQIVGFEGRSDTGKFIEVTCKEKRNPGELVKVEIISHSKGRLMAATKGN | failed
7 | MENLKKYLEVAKIAALAGGQVLKENFGKVKKENIEEKGEKDFVSYVDKTSEERIKEVILKFFPDHEVVGEEMGAEGSGSEYRWFIDPLDGTKNYINGFPIFAVSVGLVKGEEPIVGAVYLPYFDKLYWGAKGLGAYVNGKRIKVKDNESLKHAGVVYGFPSRSRRDISIYLNIFKDVFYEVGSMRRPGAAAVDLCMVAEGIFDGMMEFEMKPWDITAGLVILKEAGGVYTLVGEPFGVSDIIAGNKALHDFMLQVAKKYMEVAV | not failed
8 | MINIVIVSHSKHLAEGIEALANQMLNPTHCRLAIAAGVDDEAHPIGTDAVKIMTAIESLAEADAIIVMMDLGSAILSTETAIELLDTELAQKVTLCSAPLVEGTLAAVVAASSGASLEKVLEEANHALTPKKMQLGENMGGSEPNDVTPSIQMHGKEAHWVVKNPHGLHVRPAATLVELLSKFRADYQLIKGDRRINPLSLNQLSLIQIRQGDEITLIASGEQENEAIDAFLALAKQGFGEALPDELTEQSLTGTLVPASPIKGPAFIWHELELAPIENLSAPLDSTIQIEQFNQAIKDTLNDLKHYAEKANHTLGEQIGAIFNGHIMMLDDEELLTNVIDRIKTDNVSAQQSWTNEMKERIQLYRTLSDPYLRARELDLRDLRNQVLYHLQQKTPPKFTPSQPSILVAKELFPSTLIQFDATQLLAITLAEGDSCSHSAIIATQMGLPMLVHLGDGLLKIKEAQELTLDLKSSELIIGSIN | failed
9 | MAEVLVYVDHVDGAVRKPTLELLTLARRIGEPVALALGSGAENTAAALAEHGAGKVLTHDAAEYADYLVVPKVDALQAAYEAVSPAAVLIPSSAEGKEIAARLAVRIGSGIITDAVDLEAGDEGPVATQSAFAASFTTKSRVSKGTPVITVKPNSAPVEAAPAAGAVEALSVSFSDKATGTKVTGRTPRESTGRPELTEAAIVVSGGRGVNGAENFAIIEALADSLGAAVGASRAAVDAGWYPHSNQVGQTGKAVSPQLYIASGISGAIQHRAGMQTSKTIVAINKDAEAPIFDLVDYGVVGDLFDVVPQLTDEVKTRKG | failed
10 | MIYLAITTLIWAFSFGLIGNALKGLDPLQIADTRLLLALIAFIPFMKFGNTNGKEKRQLILLGALQYGVMYTCYLSAFRYLPSHLVALFSVLTPLYIVIINDLRQRSFTPWYLVATVLSVFGAAIIKMGNIDSNEIWLGFGLMQVANLAFAFGQVYYRDWKRSRAHITDSSIFGFLYLGAAIFTTIATLLISHQPPIPLNATPTQWFVLVYMGIIASGLCFFLWNKGGTQTSVGVLATFNNAVVPLAMFASLFIFGEAKGGTPEELVRLTIGSLLIVSALLIAKRK | failed
11 | VDEKALKHITEMGFSKEASRQALMDNGNNLEAALNVLLTSNKQKPVMGPP | not failed
12 | MARLIIPCRSSSLARVNLLGLLSRAPVPVRSSCLRSSANRLTQHRPFLTSEAICLRKNRFLPHSVDTHKQNSRRLICSVATESVPDKAEDSKMDAPKEIFLKNYTKPDYYFETVDLSFSLGEEKTIVSSKIKVSPRVKGSSAALVLDGHDLKLLSVKVEGKLLKEGDYQLDSRHLTLPSLPAEESFVLEIDTEIYPHKNTSLEGLYKSSGNFCTQCEAEGFRKITFYQDRPDIMAKYTCRVEGDKTLYPVLLSNGNLISQGDIEGGRHYALWEDPFKKPCYLFALVAGQLVSRDDTFTTRSGRQVSLKIWTPAEDLPKTAHAMYSLKAAMKWDEDVFGLEYDLDLFNIVAVPDFNMGAMENKSLNIFNSKLVLASPETATDADYAAILGVIGHEYFHNWTGNRVTCRDWFQLSLKEGLTVFRDQEFSSDMGSRTVKRIADVSKLRIYQFPQDAGPMAHPVRPHSYIKVYEKVWLFTNSVLLYAGAEVVRMYKTLLGTQGFRKGIDLYFERHDEQAVTCEDFFAAMRDANNADFANFLQWYSQAGTPVVKVVSSYNADARTFSLKFSQEIPPTPGQPTKEPTFIPVVVGLLDSSGKDITLSSVHHDGTVQTISGSSTILRVTKKEEEFVFSDIPERPVPSLFRGFSAPVRVETDLSNDDLFFLLAHDSDEFNRWEAGQVLARKLMLNLVSDFQQNKPLALNPKFVQGLGSVLSDSSLDKEFIAKAITLPGEGEIMDMMAVADPDAVHAVRKFVRKQLASELKEELLKIVENNRSTEAYVFDHSNMARRALKNTALAYLASLEDPAYMELALNEYKMATNLTDQFAALAALSQNPGKTRDDILADFYNKWQDDYLVVNKWFLLQSTSDIPGNVENVKKLLDHPAFDLRNPNKVYSLIGGFCGSPVNFHAKDGSGYKFLGDIVVQLDKLNPQVKTPKLTCVFAVTYIM | failed
13 | IEAENHKVTDKIKNAQPFLVDVVPAKSVIPELNDDAQKTLLHAGPPIQWSEMTGPMKGACIGAALFERWADNEEDALKIFEAGEVRFIPCHHVKAVGPMGGITSGNMPVFVVENRLEGNEAYCILNEGIGKVLRFGAYSQEVVDRLDWIKDVLGPTIAKALKLSEEGLNLNVLIARSITMGDEFHQRNIAASLNFLKELSPLIIKTDIPEDQKYEVIKFLADTDQFFLNVMMATGKAIVDGARKDTNGTIVTTMTRNGVNFGVRIAETGDQWHTAPVNTPKGLYFTGFSEEDGNPDVGDSAITETVGVGAMAMVAAPGVTRFVGAGGFEDALATSNEMAKICEGNNPTFSIPTWDFQGTCLGIDIRKVVELGITPIINTGIAHKNAGVGQIGAGTVRAPLGCFEKALEAYAEKLGITVE | failed
14 | MSAHQGSETVTFGDSSAERPLGRSIMRGMANRCPACGSGRLFRAFLKPVDACAACGEEMHHHRSDDLPPYISIVIIGHIAVGGFMMTDMILNIPMWAHFAIWVPITILAALLTLQPIKGGVIGLQWALRMHGFDRKQPKVQIDGSSH | failed
15 | MNKMLYGWLLAACCGLPPAFAGDSVDVLAQPALHGPQALRAVLQDVARADARLVAVGERGVVLLSDDNGATWRQATAVPVGVSLTAVQFIDARNGWAVGHAGVVLHSQDGGEHWSVQLDGKRAAALEVQAAEAAADERRLAAAQRLLADGADKPLLALNFTDARNGLVVGAYGVAMRTDDGGRSWQSEIGRLPNGRGLHLYALARQGNQVYIAGEQGLLLRSRDGGEHYEALHGPYDGSYFAATVLPDGRLLLGGLRGSLFASDDGGDSFQALANPTPASINGLRVAGGQLLLANQAGMLLRSGLGAFAAQPVAVSDGLPLTAATTAADGSIVAVGMAGARRLEPSSLSTTTD | failed
16 | MEGYRLLYPMRTYLIVSGHGEETNVMAADWVTVVSFDPFIVGVAVAPKRTTHKLIKKYGEFVISVPSLDVLRDVWIAGTKKGPSKLKEMSVTLIPSKKVKVPSIEEALANIECRVIDARSYGDHTFFVGEVVGYTYKDYAFEKGKPNLKAKFLAHVSWSEFVTFSEKVHKAE | not failed
17 | MQLNESMSTQDNSLAENYYQQAIEQWKSRDQKQALQFFKKAVRAKPSNAHYWYALAGTYHIQNKFRAARFCFEKSLNLNPNQDEIKIFLCEICYLLTDYKSVAYYAGQVDLSKIQNLEILYKVACSFKELGQLEKTGQVCSQILSLDDNFWQAKLLAAEILRIKGYSGEAKVLVLELIDQQPTVGKFWNELGINEVDLAHEDEALSAFSKAEQYVSGPEKLIIGSNYLFEFSSGLRTAKDILDAHLLWNKKYCKDQGGSFQSSKFNYLKSNDKKNIAYLSGDFKTHSVSYFIEGILENHSRDAFNIILLSNTQEDEKTKKFKELADIWIDLKLTNFETAAQIVKRLNIDILIELSGHTNGNKLNLLSSRLAPVQATYLGYFATTGLSTIDYWITDNVVHPAHTVELATETIFRLPRCYLAYTPPPQSPSIAESPVIKNGYITFGSFVASRKISDYSILLWSSILSEIPNSQLLIKNRSCVSPLYRSELIEKFSLCGISSQRINFNEAKLNLEDHLALYNKVDIALDTYPASGCTTTVEALWMGVPVLTRLGELMVSRNSASLLHALNLQNWIAETDEEYIDKGIKFTQSIEQLALLRQGMRERFMQSELYDSRGLTLHLEDFYLKALQEKLSANKEVRF | failed
18 | MHEFLKAFKDAFPHTISILLGYLLMGMTFGMLLVQQGYDYKVALFMSLFIYAGAVQFVAITLLSAQASLMNVVIVSLLVNARQTCYALSMLDRFKNTKWRLPYLAHALTDETFALLNLYAPKEGVSEKDFIFSISLLNHSYWIFGSLVGSLVGSHFSFDTQGMEFVMTAIFIVLFMEQYKRTTNHKNAWLGIVIAVVCLALFGTEYFLLIALVLMVLALMLFRKQLEC | failed
19 | ASISEVAAITGLTQDTLRWYEREGMIPTIARGSDRRRRYSERDVRLIELLVKLRTTGMPTSDMQRFAVLLAGGAETHERRLALLLAHRERILAQQARLDDALAALDTKVDHYR | failed
20 | MSRPDQAARRRAIAAELHVSPTFDARDEAERRIGFVADYLRTAGLRACVLGISGGIDSSTAGRLAQLAVERLRASGYDARFVAMRLPYGAQHDEADARRALAFVRADETLTVDVKPAADAMLAALAAGGLAYLDHAQQDFVLGNIKARERMIAQYAVAGARNGVVIGTDHAAESVMGFFTKFGDGGADVLPLAGLTKRRVRALARMLGADEPLVLKTPTADLETLRPQRPDEHAYGITYEQIDDFLEGKPMDDAVAETVLRFYDATRHKRALPYTMFDWPGHPA | not failed
